This is an account of results in the DeepSol protein solubility set.

This data set can be described thus: soluble on expression in E. coli; label from the status in PepcDB or PDB records.
Turning to “MSKAFDLVVIGAGSGGLEAGWNAATLYGKRVAVVDVQTSHGPPFYAALGGTCVNVGCVPKKLMVTGAQYMDHLRESAGFGWEFDGSSVKANWKKLIAAKNEAVLDINKSYEGMFNDTEGLDFFLGWGSLESKNVVVVRETADPKSAVKERLQADHILLATGSWPQMPAIPGIEHCISSNEAFYLPEPPRRVLTVGGGFISVEFAGIFNAYKPPGGKVTLCYRNNLILRGFDETIREEVTKQLTANGIEIMTNENPAKVSLNTDGSKHVTFESGKTLDVDVVMMAIGRIPRTNDLQLGNVGVKLTPKGGVQVDEFSRTNVPNIYAIGDITDRLMLTPVAINEGAALVDTVFGNKPRKTDHTRVASAVFSIPPIGTCGLIEEVAAKEFEKVAVYMSSFTPLMHNISGSKYKKFVAKIVTNHSDGTVLGVHLLGDGAPEIIQAVGVCLRLNAKISDFYNTIGVHPTSAEELCSMRTPSYYYVKGEKMEKLPDSNL”, the “soluble on expression in E. coli” value is reported as “soluble”.

As to “MGGSHHHHHHGMASALASYFDEHDCEPSDPEQETRTNMLLELARSLFNRMDFEDLGLVVDWDHHLPPPAAKTVVENLPRTVIRGSQAELKCPVCLLEFEEEETAIEMPCHHLFHSSCILPWLSKTNSCPLCRYELPTDDDTYEEHRRDKARKQQQQHRLENLHGAMYT”, the “soluble on expression in E. coli” value is listed as “not soluble”. The same measure for “MGSDKIHHHHHHVPVRDGLQPLFVAAPLHAGGRPAAFGLKDRVMADNTTSTALLDLRGVRKTFLTPDRRERTVLEGVDFKLEEGEIVALLGKSGSGKSTLLRIMAGLIKANGGEVKYRGHLMTGPAKGISMVFQSFALFPWLTVEENVELGLEAAGIPKAEREDRANEAIDLIGLGGYESAYPKELSGGMRQRVGFARALVMRPDVLLLDEPFSALDVLTSETLREDLLELWDERKIPTKGILLVSHNIEEAVSMADRVLVFSSDPGRVRAEIRVNLPRPRDTESAAFRQIVDEVYTLMTANVRGGGVGATEQLTLGYRLPDTTPGKMAGLLETVAEAPFNGRADLPQLAEETELEDDQLFHLFEGLRVLGLARIAAGDIFVTHSGQAFVEADDAHRKELFAEALVKNIPLAAHIRRVLDERKDHRAPEDRFLQELQDYLTDDEAERVLETTITWGRYAEIFDYDYNAGVLMLPEEVVEELEAGEETRDDPGARE”: “not soluble”; for “HHHHHHSSGLVPRGSHMSVKKAGVLGATGSVGQRFILLLSKHPEFEIHALGASSRSAGKKYKDAASWKQTETLPETEQDIVVQECKPEGNFLECDVVFSGLDADVAGDIEKSFVEAGLAVVSNAKNYRREKDVPLVVPIVNPEHIDVVENKVKQAVSKGGKKPGFIICISNCSTAGLVAPLKPLVEKFGPIDALTTTTLQAISGAGFSPGVSGMDILDNIVPYISGEEDKLEWETKKILGGVNAEGTEFVPIPESEMKVSAQCNRVPVIDGHTECISLRFANRPAPSVEDVKQCLREYECAASKLGCHSAPKQTIHVLDQPDRPQPRLDRDRDSGYGVSVGRIREDSLLDFKMVVLSHNTIIGAAGAGILIAEILKAKNII”: “soluble”; for “SLNERVMMINANGVPIALYNRGHLGSGHFGAVIKASLDDGTLYAAKVPYSQIVPNADATSAELEAEISSARAELVKTIRQELDVRDKLVAKGLTLTETAEQYGLPLCQMTLTLPENKATVVRRGSRLVVVSKEVMLLPLIDGSPSNSLVQSQPPFLFQRAVAREAIIALAKLHELGFAHGDVKLNNMMIDVHGFGHMLDMGSVRPVDSCVSEEDKYYLRLWAPELAKSQHTSQQTCLKRGALDVWALGLAIFEFVCFNRLPYSLSNLPSSLWSRVEHLSRLRLSDFSAKDCNESDPAVMGIVAQFLNPNPEERPELPKFVSSYTFFRQAPGVTSHLTRIPTTELSSHR”: “not soluble”.

For the sequence “MGSSHHHHHHSSGLVPRGSSTYRDIVVKKEDGFTQIVLSTRSTEKNALNTEVIKEIVNALNSAAADDSKLVLFSAAGSVFCCGLDFGYFVKHLRNNRNTASLEMVDTIKNFVNTFIQFKKPIVVSVNGPAIGLGASILPLCDLVWANEKAWFQTPYTTFGQSPDGCSSITFPKMMGKASANEMLIAGRKLTAREACAKGLVSQVFLTGTFTQEVMIQIKELASYNPIVLEECKALVRCNIKLELEQANERECEVLRKIWSSAQGIESMLKIPLLGYKAAFPPRKTQNDQRW”, the “soluble on expression in E. coli” value is “soluble”. For the sequence “SLPWLHRETARSFGGAGSTAGYEQVTAYTLTGQLQSRHLNLPQLDCDYDWNDNGQLIRISGPQESREYRYSDTGRLTGVHTTAANLDIDIPYATDPAGNRLPDPELHPDSTLTAWPDNRIAEDAHYVYRYDEYGRLTEKTDRIPEGVIRMHDERTHHYHYDNQHRLVFYTRIQYGEPLVESRYLYDPLGRRTGKRVWRRERDLTGWMSLSRKPEVTWYGWDGDRLTTVQTGTTRIQTVYRPGSFTPLIRIETENGEREKAQRRSLAEKLQQEGSEDGHGVVFPAELVRMLDRLEEEIRADRVSSESRAWLAQCGLTVEQLEKQVEPEYTPARTLHLYHCDHRGLPLALISEDGNTAWSAEYDEWGNQLNEENPHHLHQPYRLPGQQHDEESGLYYNRHRYYDPLQGRYITPDPIGLRGGWNMYQYPLNPIQVIDPMGLDAIENMTSGGLIYAVSGVPGLIVANSITNSAYQFGYDMDAIVGGAHNGAADAMRYCYLMCRMTKT”, the “soluble on expression in E. coli” value is listed as “not soluble”.

As to “MAHIVIVGAGLGGLPTAYELRHILPKQHQVTVISETPYFTFIPSLPWVAMGLTSLESIQVSLQQRLKQKGINWILGRVDYLNPQNQKISLGEQSISYDYLIIATGAELALDAVAGLGPDGYTQSVCNPHHAIKAFQAWQNFLLAPGPLVVGALPKTSCLGPAYEFTLLADYVLRKQGLREQVSITFVTPEPYAGHLGIGGMANSAELVTKFMAERGVEVIENVAVTAIEANQIHLGNGRVLPFAYSMLLPPFRGPRFVRQVPGLSNQDGFIPVLPTYRHPEYASIYAVGVVVEIKPSEVTPLPLGVPKTGQMTEAMGMAVAHNIAIELGVFSAPPVTPTLDAICFADFGNSGILFLANPVLPDLATGKRRRAVALSGAWVTWAKAAFERYFLAKMRFGTAVPWFEKLALKLLGLSLVAPLAVKSSRNISQENYLEHHHHHH”, the “soluble on expression in E. coli” value is reported as “not soluble”. Turning to “FEELAKQIKLAKTPRLLISLKAEVPMAIGWLKPVVLLPASMVTGLNAAQLEMLILHELAHIRRHDYLVNFLQTLIELLFFFHPSVHWIGKQMRNEREYCSDDIAVQHCGDAIAYAHTLTDTASLCAKNHFHTIPTMAMAASGGDL”, the “soluble on expression in E. coli” value is “not soluble”. For the sequence “MSSEDRHLGSSCGSFIKTEPSSPSSGIDALSHHSPSGSSDASGGFGIALSTHANGLDSPPMFAGAGLGGNPCRKSYEDCTSGIMEDSAIKCEYMLNAIPKRLCLVCGDIASGYHYGVASCEACKAFFKRTIQGNIEYNCPATNECEITKRRRKSCQACRFMKCLKVGMLKEGVRLDRVRGGRQKYKRRLDSENSPYLNLPISPPAKKPLTKIVSNLLGVEQDKLYAMPPNDIPEGDIKALTTLCELADRELVFLINWAKHIPGFPSLTLGDQMSLLQSAWMEILILGIVYRSLPYDDKLAYAEDYIMDEEHSRLVGLLDLYRAILQLVRRYKKLKVEKEEFMILKALALANSDSMYIENLEAVQKLQDLLHEALQDYELSQRHEEPRRAGKLLWTLPLLRQTAAKAVQHFYSVKLQGKVPMHKLFLEMLEAKV”, the “soluble on expression in E. coli” value is on record as “soluble”. Regarding “AQKPWEKDAWEIPRESLKLEKKLGAGQFGEVWMATYNKHTKVAVKTMKPGSMSVEAFLAEANVMKTLQHDKLVKLHAVVTKEPIYIITEFMAKGSLLDFLKSDEGSKQPLPKLIDFSAQIAEGMAFIEQRNYIHRDLRAANILVSASLVCKIADFGLARVIEDNEYTAREGAKFPIKWTAPEAINFGSFTIKSDVWSFGILLMEIVTYGRIPYPGMSNPEVIRALERGYRMPRPENCPEELYNIMMRCWKNRPEERPTFEYIQSVLDDFE”, the “soluble on expression in E. coli” value was “soluble”. Turning to “MGSDKIHHHHHHKDNTKVIAHRGYWKTEGSAQNSIRSLERASEIGAYGSEFDVHLTADNVLVVYHDNDIQGKHIQSCTYDELKDLQLSNGEKLPTLEQYLKRAKKLKNIRLIFELKSHDTPERNRDAARLSVQMVKRMKLAKRTDYISFNMDACKEFIRLCPKSEVSYLNGELSPMELKELGFTGLDYHYKVLQSHPDWVKDCKVLGMTSNVWTVDDPKLMEEMIDMGVDFITTDLPEETQKILHSRAQ”, the “soluble on expression in E. coli” value was “not soluble”. Take “MDSDEVRKRKEYAERKVKERHAALRKEAEEKRKHTVEHRERVQSVLKREQIALQKRMQQLNEDEERKKVTLAKQHEVSSRIAAITKSPKSFAFGSSTPRTLAYLDNLPKSEQQYDKKLRPLDQGPSQTTSPTSTTSNTTKMGRLSMTPQRAPPASHRPAPAMASMTTSMYVTSSAPSTRQAKSISKPAAVTTKKVGSMMTQSVYTPTSRPATSSRLTMKQPARGASTSAARPNTATPSSSNNRRSMDQRKPPMPRKLPFGKPEAARKSASPVAAQEPTAPVVVVAPVEAIPEVPAVQEEVLTVEEPAAPAREAVVEEAPEAVVEQEEITVAPEAVVAEEQQIAPEATPTVIEEHHNEVTVAPEAPEIQEPSEPATEPIPEPNEPKDEEIQRNEEMFHEDTSESHLESSTNTSLADELISIGIDQSQEILPSKPEILELHYPLVEEQNAVIAPVGAGEGSGVNDLIGVFGNDFINQNQPPPQQQQQQQRLVQFDEDTDSGKASPTSSETSSTTDEVTPRGAIEEEAAAEKITAPRVLPIVRSAEDIARKEKEIRESEERKSRLAAILAKSRGMASPMTNTLPPTADDIKGRCSHLHPLKRLPKRHRMSLEEQMMCSPVSLR”: the “soluble on expression in E. coli” value is given as “not soluble”.

As for “MTGITIFYGDNIIRYVVNTKKGLRPYFKQLPDNYQAKFELNLMSKFSNFIINKPFSAINTAARHIFSRYLLENKHLFYQYFKISNTGIDHLEQLINVNFFSSDRTSFCECNRFP”, the “soluble on expression in E. coli” value was “not soluble”.

Regarding “ENMLFTVVSLYISTKVLDFILEGYNPKKSVTIISDYYEEIATEIDANLERGITLFNGQGFYMRQDKKILYIVISRDQLLPLTKIVNKYDEKAFFIINDVQSVVGEGFTKQITSE”, the “soluble on expression in E. coli” value was “not soluble”. The same measure for “MNKTWWKEAVAYQIYPRSFMDSNGDGIGDLQGIIAKLDYLKDLGIDVIWICPMYKSPNDDNGYDISDYQDIMDEFGTMEDFDALLDEVHKRDMKLIIDLVINHTSDEHPWFIESRSSKDNPKRDWYIWHDGKDGAEPNNWESIFNGSAWEYDEVTGQYYLHLFSRKQPDLNWENKEVREVLYDTVNWWLDKGIDGFRVDAISHIKKEDGFKDMPNPKGLKYVPSFDKHMNVDGIQPLLEELKENTFSKYDIMTVGEANGVKIEDAELWVGEEQGKFNMVFQFEHLSLWDAEKKKDLDVVGLKKVLTKWQKGLENKGWNALYIENHDKPRIVSTWGDDKQYWRESATALGAMYFFMHGTPFIYQGQEIGMTNVQFPNIEDYDDVAIKNLYREKIAEGVSHQDMMEIIWASCRDNSRTPMHWDDEINAGFTTGTPWFGMNQNYKEINVAKQKNEENSIFNFYKKMIALKKEHDVLNYGTYDLLLEDDPQIYAYTRTLNDEKIVVISNISKEEAVYNEDLFALERKRLLLNNYEVAEHEQLTTITLKPYETRVYRIS”: “not soluble”; for “MVSFVNCRSQIKTNMQEQNNPLLCNPESGFCEMPSIKPDTAHQADLKSDKKPVKVIYYTDPICSSCWGIEPQLRKLKLEYGTSIDIEYRMGGLLPDWSYNSGGISKPSDVAHHWDEVSVYYDMPIDGGVWLEDPLPSSYPPSIAFKAVQIQSTERAILFLREIREMVFLQKKNIAKWEHLEQAAKNTGVNIEQFKKDYEGRAKDLFYADLKLARDLGVHGFPTMIFSDSTGKNETVYGYKPYAVFENTIAGLYPSVQKYTYDKSIAAVFSTFHSLTAKEFSELTGVARNQSEQMLDEYVKQGMLQKWTTKNGSLWSLKK”: “not soluble”.
